Assay results published in patent US20180037631A1 (Bristol-Myers Squibb, published 2018).
Read-outs that look alike come from different tables or passages of the source.

B1: E1-GS10-I1 pegylated, His-tagged (designed binder)
chain: MGVSDVPRDLEVVAATPTSLLISWVAGAEDYQYYRITYGETGGNSPVQEFTVPHDLVTATISGLKPGVDYTITVYAVTDMMHVEYTEHPISINYRTEIDKGSGSGSGSGSGSGSGSGSGSVSDVPRDLEVVAATPTSLLISWSARLKVARYYRITYGETGGNSPVQEFTVPKNVYTATISGLKPGVDYTITVYAVTRFRDYQPISINYRTEIDKPCQHHHHHH
modifications: 40 kDa branched PEG on the Cys of the C-terminal Cys tail
notes: also called E1-GS10-I1 (with PEG)
B2: E3-GS10-I1 pegylated, His-tagged (designed binder)
chain: MGVSDVPRDLEVVAATPTSLLISWLPGKLRYQYYRITYGETGGNSPVQEFTVPHDLRTATISGLKPGVDYTITVYAVTNMMHVEYSEYPISINYRTEIDKGSGSGSGSGSGSGSGSGSGSVSDVPRDLEVVAATPTSLLISWSARLKVARYYRITYGETGGNSPVQEFTVPKNVYTATISGLKPGVDYTITVYAVTRFRDYQPISINYRTEIDKPCQHHHHHH
modifications: 40 kDa branched PEG on the Cys of the C-terminal Cys tail
notes: also called E3-GS10-I1-Cys (with his)
B3: E3-GS10-I1, non-pegylated (designed binder)
chain: VSDVPRDLEVVAATPTSLLISWLPGKLRYQYYRITYGETGGNSPVQEFTVPHDLRTATISGLKPGVDYTITVYAVTNMMHVEYSEYPISINYRTEIDKGSGSGSGSGSGSGSGSGSGSVSDVPRDLEVVAATPTSLLISWSARLKVARYYRITYGETGGNSPVQEFTVPKNVYTATISGLKPGVDYTITVYAVTRFRDYQPISINYRTEIDKPSQ
B4: I1GS10-E3 (Pegylated) (designed binder)
I/E tandem 10Fn3 chain: MGVSDVPRDLEVVAATPTSLLISWSARLKVARYYRITYGETGGNSPVQEFTVPKNVYTATISGLKPGVDYTITVYAVTRFRDYQPISINYRTEIDKGSGSGSGSGSGSGSGSGSGSVSDVPRDLEVVAATPTSLLISWLPGKLRYQYYRITYGETGGNSPVQEFTVPHDLRTATISGLKPGVDYTITVYAVTNMMHVEYSEYPISINYRTEIDKPCQHHHHHH
modifications: Cys of the C-terminal Cys tail conjugated to 40 kDa branched PEG
B5: I1-GS10-E3, non-pegylated (designed binder)
chain: VSDVPRDLEVVAATPTSLLISWSARLKVARYYRITYGETGGNSPVQEFTVPKNVYTATISGLKPGVDYTITVYAVTRFRDYQPISINYRTEIDKGSGSGSGSGSGSGSGSGSGSVSDVPRDLEVVAATPTSLLISWLPGKLRYQYYRITYGETGGNSPVQEFTVPHDLRTATISGLKPGVDYTITVYAVTNMMHVEYSEYPISINYRTEIDKPSQ

Legend:
[1] = molecular target: T1, EGFR on the surface of human tumour cells (A431, H292) (human, UniProt P00533 25-1210); assay: cell-based or functional assay
[2] = molecular target: T1, EGFR on the surface of human tumour …; assay: cell-based or functional assay; remark: listed apart in the source
[3] = molecular target: T2, IGF-IR on human tumour cells (H292, MCF-7, RH41) (human, UniProt P08069 31-1367); assay: cell-based or functional assay
[4] = molecular target: T1, EGFR on the surface of human tumour …
[5] = molecular target: T3, Recombinant human EGFR-Fc (aa 1-645 of the extracellular domain of human EGFR fused to human Fc) (human, UniProt P00533 25-645)
T3 construct: range 1-645; bought from R&D Systems; also called EGFR645-Fc; EGFR-Fc (HER-1); not shown: human Fc

[6] = molecular target: T4, IGF1R-Fc (extracellular domain of human IGF1R aa 1-932 fused to hinge and constant regions of human IgG1) (human, UniProt P08069 31-932)
T4 construct: range 1-932; made in house by transient transfection, purified on Protein A; also called IGF-IR-Fc; not shown: hinge and constant regions of human IgG1

[7] = molecular target: T4, IGF1R-Fc (extracellular domain of human …); remark: listed apart in the source
[8] = molecular target: T1, EGFR on the surface of human tumour …; remark: listed apart in the source
[9] = molecular target: T2, IGF-IR on human tumour cells (H292, …); assay: cell-based or functional assay; remark: listed apart in the source
[10] = molecular target: T3, Recombinant human EGFR-Fc (aa 1-645 of …); remark: listed apart in the source
[11] = molecular target: T4, IGF1R-Fc (extracellular domain of human …); remark: listed apart in the source
[12] = molecular target: T1, EGFR on the surface of human tumour …; assay: cell-based or functional assay; remark: listed apart in the source
[13] = molecular target: T2, IGF-IR on human tumour cells (H292, …); assay: cell-based or functional assay; remark: listed apart in the source

Row | Binder | A431 pEGFR IC50 (In-Cell Western) [2] | A431 pERK IC50 (In-Cell Western) [2] | H292 pEGFR IC50 (ELISA) [2] | H292 pIGF-IR IC50 (ELISA) [3] | IC50 [4] | Kd [5] | Kd [6] | IC50 [8] | Kd [10] | koff [10] | kon [10] | Kd [11] | koff [11] | kon [11] | IC50, EGF-stimulated EGFR phosphorylation, A431 cells, In Cell Western [12] | IC50, EGF-stimulated EGFR phosphorylation, H292 cells, ELISA [12] | IC50, EGF-stimulated ERK phosphorylation, A431 cells, In Cell Western [12] | IC50, IGF1-stimulated IGFR phosphorylation, H292 cells, ELISA [13] | further results
1 | B1 | 297 nM | 295 nM | 123 nM | 4 nM | 396 nM | 57.9 nM | 2.4 nM | 238 nM |  |  |  |  |  |  |  |  |  |  | inhibition of EGF induced EGFR phosphorylation, A431, IC50 [1]: 297 nM; inhibition of EGF induced ERK phosphorylation, A431, IC50 [1]: 295 nM; inhibition of EGFR activity, H292 cells, IC50 [1]: 123 nM; Kd [7]: 2.43 nM
2 | B2 | 42 nM | 40 nM | 10 nM | 6 nM | 80.5 nM | 10.4 nM | 0.74 nM | 89 nM |  |  |  |  |  |  |  |  |  |  | inhibition of IGFR activity, H292 cells, IC50 [9]: 6 nM
3 | B3 | 14 nM | 12 nM | 7 nM | 6 nM | 25 nM | 0.7 nM | 0.1 nM |  | 0.66 nM | 0.000229 s⁻¹ | 349000 M⁻¹ s⁻¹ | 0.12 nM | 0.000209 s⁻¹ | 1.8e+06 M⁻¹ s⁻¹ |  |  |  |  | 
4 | B4 |  |  |  |  |  |  |  |  |  |  |  |  |  |  | 47 nM | 46 nM | 50 nM | 2 nM | 
5 | B5 |  |  |  |  |  |  |  |  | 2.48 nM | 0.000291 s⁻¹ | 117000 M⁻¹ s⁻¹ | 0.03 nM | 4.54e-05 s⁻¹ | 1.37e+06 M⁻¹ s⁻¹ | 47 nM | 25 nM | 42 nM | 19 nM | 
